Experimental data from patent US7264801.

What was measured:
[1] = molecular target: EG-VEGF receptor (high affinity binding sites) on bovine adrenal cortical capillary endothelial cells (ACE) (bovine); assay: 125I-EG-VEGF competitive binding on ACE cells, Scatchard analysis
[2] = molecular target: EG-VEGF receptor (high affinity binding sites) on bovine adrenal cortical capillary endothelial cells (ACE) (bovine); assay: displacement of 125I-EG-VEGF by unlabeled tagged EG-VEGF on ACE cells
[3] = molecular target: EG-VEGF binding component on human umbilical vein endothelial cells (HUVEC) (human); assay: displacement of 125I-EG-VEGF by unlabeled tagged EG-VEGF on HUVEC and other non-responsive cells

B1: EG-VEGF-his (human EG-VEGF with C-terminal … tag, baculovirus-produced) (ligand)
chain: AVITGACERDVQCGAGTCCAISLWLRGLRMCTPLGREGEECHPGSHKVPFFRKRKHHTCPCLPNLLCSRFPDGRYRCSMDLKNINFGHHHHHHHH
modifications: 125I-iodinated when used as tracer in the cell binding assays (Iodobead or lactoperoxidase method); the unlabeled form was the competitor and the ELISA antigen
With B1 the Kd [1] was 0.9 to 1 nM, the ED50 [2] was 10 nM and the competitor concentration that displaces the binding [3] was > 270 nM.
